Target: T1, cynomolgus serum albumin (cynomolgus)
T1 construct: also called CSA
Assay: SPR (ProteOn XPR36), Protein #5 captured on hFAP-coated GLC chip, CSA as analyte, 1:1 Langmuir fit
Procedure: ProteOn setup for Protein #5 binding to serum albumin of different species. First, human FAP (hFAP) was coated on a GLC chip (BioRad) to a level of 700 RU before 50 nM Protein #5 was immobilized as analyle for 120 s (dissociation of 0 s) at constant flow of 100 μl/min to a level of 120 RU. The binding of the serum albumin to Protein #5 was measured by injecting human serum albumin (HSA), cynomolgus serum albumin (CSA) and mouse serum albumin (MSA) in a serial dilution of 100, 33, 11 and 3.7 nM with an association of 120 s and a dissociation of 600 s at a constant flow of 100 μl/min. HSA, CSA and MSA binding was measured serially and the hFAP/Protein #5 complex was regenerated each time with 10 mM glycine pH2 for 18 s at a flow of 100 μl/min. Thus, Protein #5 had to be re-immobilized on hFAP after each regeneration step. […] The kinetic was calculated on the first 300 s of dissociation.

T1 sequence (A2V9Z4 25-608): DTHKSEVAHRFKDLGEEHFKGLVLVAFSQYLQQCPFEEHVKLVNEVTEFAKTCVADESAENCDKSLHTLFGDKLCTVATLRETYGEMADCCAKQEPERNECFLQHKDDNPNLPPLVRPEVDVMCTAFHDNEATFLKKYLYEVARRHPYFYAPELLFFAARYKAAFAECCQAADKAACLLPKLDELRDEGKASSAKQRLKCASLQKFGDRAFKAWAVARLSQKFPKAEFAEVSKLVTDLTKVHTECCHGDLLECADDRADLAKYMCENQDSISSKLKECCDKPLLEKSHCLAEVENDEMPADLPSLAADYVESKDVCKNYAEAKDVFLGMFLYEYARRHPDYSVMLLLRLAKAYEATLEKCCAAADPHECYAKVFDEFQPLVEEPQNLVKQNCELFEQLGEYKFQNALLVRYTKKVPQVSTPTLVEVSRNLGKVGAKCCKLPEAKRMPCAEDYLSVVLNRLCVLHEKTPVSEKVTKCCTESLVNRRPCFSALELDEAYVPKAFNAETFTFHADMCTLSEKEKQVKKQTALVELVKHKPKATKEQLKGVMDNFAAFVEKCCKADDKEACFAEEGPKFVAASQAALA

- Kd: 409 nM
- koff: 0.217 s⁻¹
- kon: 532000 M⁻¹ s⁻¹
B1: DARPin Protein #5 (designed binder)
chain: GSDLGKKLLEAARAGQDDEVRELLKAGADVNAKDYFSHTPLHLAARNGHLKIVEVLLKAGADVNAKDFAGKTPLHLAAADGHLEIVEVLLKAGADVNAQDIFGKTPADIAADAGHEDIAEVLQKAAGSPTPTPTTPTPTPTTPTPTPTGSDLGKKLLEAARAGQDDEVRILLAAGADVNAKDVLGWTPLHLAAFEGHLEIVEVLLKAGADVNAKDKKGWTPLQLAARTGHLEIVEVLLKAGADVNAKDHIGATPLHLAAWQGHPEIVEVLLKAGADVNAQDKSGKTPADLAADAGHEDIAEVLQKAAGSPTPTPTTPTPTPTTPTPTPTGSDLGKKLLQAARAGQLDEVRELLKAGADVNAKDTWGFTPLHIAAESGHLEIVEVLLKAGADVNAKDVQGRTPLHIAAHSGHLEIVEVLLKAGADVNAKDFRGWTPLHLAAWSGHLEIVEILLKAGADVNAQDKSGKTPADLAARAGHQDIAEVLQKAAGSPTPTPTTPTPTPTTPTPTPTGSDLGKKLLQAARAGQLDEVRELLKAGADVNAKDTWGFTPLHIAAESGHLEIVEVLLKAGADVNAKDVQGRTPLHIAAHSGHLEIVEVLLKAGADVNAKDFRGWTPLHLAAWSGHLEIVEILLKAGADVNAQDKSGKTPADLAARAGHQDIAEVLQKAA
notes: No tag is stated for this protein; also called SMA136; Molecule No. 1
